From patent publication US20150377889

Molecular target: recombinant wild type full-length human galectin-3, His-tagged (unphosphorylated)
Sequence (chain, as listed by the source): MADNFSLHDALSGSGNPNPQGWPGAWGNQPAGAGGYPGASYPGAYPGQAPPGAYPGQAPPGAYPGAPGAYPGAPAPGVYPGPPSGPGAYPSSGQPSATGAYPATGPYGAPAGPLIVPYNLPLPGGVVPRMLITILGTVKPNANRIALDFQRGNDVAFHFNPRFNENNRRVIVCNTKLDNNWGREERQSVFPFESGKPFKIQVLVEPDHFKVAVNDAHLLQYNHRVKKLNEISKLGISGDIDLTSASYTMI

B1: active c-Abl kinase (protein)
chain: PVNSLEKHSWYHGPVSRNAAEYLLSSGINGSFLVRESESSPGQRSISLRYEGRVYHYRINTASDGKLYVSSESRFNTLAELVHHHSTVADGLITTLHYPAPKRNKPTVYGVSPNYDKWEMERTDITMKHKLGGGQYGEVYEGVWKKYSLTVAVKTLKEDTMEVEEFLKEAAVMKEIKHPNLVQLLGVCTREPPFYIITEFMTYGNLLDYLRECNRQEVNAVVLLYMATQISSAMEYLEKKNFIHRDLAARNCLVGENHLVKVADFGLSRLMTGDTYTAHAGAKFPIKWTAPESLAYNKFSIKSDVWAFGVLLWEIATYGMSPYPGIDLSQVYELLEKDYRMERPEGCPEKVYELMRACWQWNPSDRPSFAEIHQAFETMFQESSISDEVEKELGKQGVRGAVSTLLQAPELPTKTRTSRRAAEHRDTTDVPEMPHS
in vitro tyrosine phosphorylation of galectin-3 (c-Abl kinase assay, pTyr blot): phosphorylating galectin-3 in vitro with active c-Abl
